From patent US6395548, “Methods of modulating of angiogenesis” (President and Fellows of Harvard College) come the findings set out here.

The target of series [1] is HIF-1alpha/ARNT4 (Homo sapiens, UniProt Q16665;Q8WYA1-5 Q16665:1-826,Q8WYA1-5:1-602). Put plainly: EMSA; HIF-1 did not form dimers with ARNT4 and bind the site.
In series [2] the target is EPAS1/ARNT4 heterodimer (Homo sapiens, UniProt Q99814;Q8WYA1-5 Q99814:1-870,Q8WYA1-5:1-602). In words: EMSA; probe described as HIF-1 site / hypoxia responsive element of VEGF.
Sequence of EPAS1/ARNT4 heterodimer (Q99814 whole entry, chain 1 of 2): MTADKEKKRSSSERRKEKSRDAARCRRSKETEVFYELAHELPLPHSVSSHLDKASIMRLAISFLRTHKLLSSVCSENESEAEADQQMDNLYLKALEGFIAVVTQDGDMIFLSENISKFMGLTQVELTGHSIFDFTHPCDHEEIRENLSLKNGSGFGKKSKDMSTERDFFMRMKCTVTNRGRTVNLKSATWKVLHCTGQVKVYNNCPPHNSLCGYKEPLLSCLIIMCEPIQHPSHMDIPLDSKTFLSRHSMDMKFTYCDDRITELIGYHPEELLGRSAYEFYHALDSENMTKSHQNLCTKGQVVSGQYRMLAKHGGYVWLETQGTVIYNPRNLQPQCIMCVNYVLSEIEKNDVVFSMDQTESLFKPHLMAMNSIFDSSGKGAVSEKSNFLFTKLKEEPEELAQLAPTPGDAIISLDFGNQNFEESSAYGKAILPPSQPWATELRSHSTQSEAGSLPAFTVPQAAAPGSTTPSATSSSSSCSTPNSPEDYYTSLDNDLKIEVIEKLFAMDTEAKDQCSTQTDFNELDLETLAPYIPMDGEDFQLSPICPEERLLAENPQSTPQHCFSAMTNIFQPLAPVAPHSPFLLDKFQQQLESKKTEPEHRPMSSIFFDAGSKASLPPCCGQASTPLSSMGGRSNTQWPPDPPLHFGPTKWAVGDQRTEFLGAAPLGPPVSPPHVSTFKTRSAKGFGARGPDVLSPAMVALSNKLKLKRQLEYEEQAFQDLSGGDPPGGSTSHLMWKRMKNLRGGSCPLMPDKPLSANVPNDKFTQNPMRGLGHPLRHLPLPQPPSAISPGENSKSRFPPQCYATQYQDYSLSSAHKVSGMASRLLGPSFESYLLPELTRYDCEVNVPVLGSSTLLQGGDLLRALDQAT
Sequence of EPAS1/ARNT4 heterodimer (Q8WYA1 other isoform, or with tags, fused parts or gaps, chain 2 of 2): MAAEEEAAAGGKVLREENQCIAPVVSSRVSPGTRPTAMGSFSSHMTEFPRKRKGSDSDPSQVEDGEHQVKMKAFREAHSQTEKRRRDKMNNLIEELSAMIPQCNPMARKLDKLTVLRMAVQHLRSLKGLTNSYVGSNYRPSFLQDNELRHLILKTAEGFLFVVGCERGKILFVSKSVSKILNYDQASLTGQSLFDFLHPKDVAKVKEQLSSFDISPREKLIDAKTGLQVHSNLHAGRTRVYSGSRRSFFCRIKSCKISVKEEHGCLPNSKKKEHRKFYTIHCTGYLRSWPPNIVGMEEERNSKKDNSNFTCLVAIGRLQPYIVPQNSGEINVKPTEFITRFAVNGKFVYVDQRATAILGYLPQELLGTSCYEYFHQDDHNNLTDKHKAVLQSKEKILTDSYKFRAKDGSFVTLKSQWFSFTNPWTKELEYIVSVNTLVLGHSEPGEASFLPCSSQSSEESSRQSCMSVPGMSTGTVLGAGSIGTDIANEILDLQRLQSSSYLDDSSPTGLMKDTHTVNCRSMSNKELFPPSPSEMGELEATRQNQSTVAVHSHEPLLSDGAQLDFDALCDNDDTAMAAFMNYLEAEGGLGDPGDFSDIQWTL

Sequence of HIF-1alpha/ARNT4 (Q16665 whole entry, chain 1 of 2): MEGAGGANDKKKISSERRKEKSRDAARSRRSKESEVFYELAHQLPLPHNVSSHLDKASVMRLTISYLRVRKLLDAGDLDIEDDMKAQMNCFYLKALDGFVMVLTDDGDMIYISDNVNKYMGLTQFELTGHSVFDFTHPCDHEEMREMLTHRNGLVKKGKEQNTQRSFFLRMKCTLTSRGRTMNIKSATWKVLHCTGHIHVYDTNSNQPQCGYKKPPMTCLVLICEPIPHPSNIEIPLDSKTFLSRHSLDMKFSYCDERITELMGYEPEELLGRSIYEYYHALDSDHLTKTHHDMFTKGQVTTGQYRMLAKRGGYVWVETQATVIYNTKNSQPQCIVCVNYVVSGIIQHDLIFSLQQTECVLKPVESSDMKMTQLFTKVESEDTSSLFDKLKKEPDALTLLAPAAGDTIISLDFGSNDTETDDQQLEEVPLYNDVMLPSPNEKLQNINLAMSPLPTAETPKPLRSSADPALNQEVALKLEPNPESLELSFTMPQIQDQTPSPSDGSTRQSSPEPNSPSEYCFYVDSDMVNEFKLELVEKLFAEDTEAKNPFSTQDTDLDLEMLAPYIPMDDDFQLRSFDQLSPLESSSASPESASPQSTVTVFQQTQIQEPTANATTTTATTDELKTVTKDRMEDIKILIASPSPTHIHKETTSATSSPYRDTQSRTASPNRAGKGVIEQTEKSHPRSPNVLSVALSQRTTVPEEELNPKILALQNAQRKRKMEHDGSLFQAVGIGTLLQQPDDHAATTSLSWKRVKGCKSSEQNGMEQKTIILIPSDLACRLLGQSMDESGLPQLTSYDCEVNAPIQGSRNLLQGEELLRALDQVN
Sequence of HIF-1alpha/ARNT4 (Q8WYA1 other isoform, or with tags, fused parts or gaps, chain 2 of 2): as the sequence (Q8WYA1 other isoform, or with tags, fused parts or gaps, chain 2 of 2) above

B1: VEGF promoter HIF-1 binding site / hypoxia responsive element (dsDNA)
DNA 1: GCCCTACGTGCTGTCTCA
DNA 2: TGAGACAGCACGTAGGGC
Regarding B1, the binding result is on record as “no binding” in series [1] and “binds” in series [2].
